Measured values: US20150368616A1, “METHODS FOR INDUCTION OF CELL FATES FROM PLURIPOTENT CELLS” (THE CLEVELAND CLINIC FOUNDATION, priority 2013, published 2015)

B1: Hb-EGF: EGFR agonist (protein, UniProt Q99075 63-148, looked up)
Heparin-binding EGF-like …: DLQEADLDLLRVTLSSKPQALATPNKEEHGKRKKKGKGLGKKRDPCLRKYKDFCIHGECKYVKELRAPSCICHPGYHGERCHGLSL
B2: Noggin: BMP inhibitor (protein, UniProt Q13253 28-232, looked up)
Noggin: QHYLHIRPAPSDNLPLVDLIEHPDPIFDPKEKDLNETLLRSLLGGHYDPGFMATSPPEDRPGGGGGAAGGAEDLAELDQLLRQRPSGAMPSEIKGLEFSEGLAQGKKQRLSKKLRRKLQMWLWSQTFCPVLYAWNDLGSRFWPRYVKVGSCFSKRSCSVPEGMVCKPSKSVHLTVLRWRCQRRGGQRCGWIPIQYPIISECKCSC
B3: Nbl1: DAN family protein, NBL1 protein (Sino Biologicals, cat number 10169-H02H) (protein, UniProt P41271 17-181, looked up)
Neuroblastoma suppressor of …: AAPPPINKLALFPDKSAWCEAKNITQIVGHSGCEAKSIQNRACLGQCFSYSVPNTFPQSTESLVHCDSCMPAQSMWEIVTLECPGHEEVPRVDKLVEKILHCSCQACGKEPSHEGLSVYVQGEDGPGSQPGTHPHPHPHPHPGGQTPEPEDPPGAPHTEEEGAED
B4: Mfap5: non-canonical notch agonist (protein, UniProt Q9QZJ6 29-164, looked up)
Microfibrillar-associated …: QRGDDVPETFTDDPNLVNDPSTDDTALADITPSTDDLAGDKNATAECRDEKFACTRLYSVHRPVRQCVHQSCFTSLRRMYIINNEICSRLVCKEHEAMKDELCRQMAGLPPRRLRRSNYFRLPPCENMNLQRPDGL
B5: FGF10: FGF growth factor (protein, UniProt O15520 38-208, looked up)
Fibroblast growth factor 10: QALGQDMVSPEATNSSSSSFSSPSSAGRHVRSYNHLQGDVRWRKLFSFTKYFLKIEKNGKVSGTKKENCPYSILEITSVEIGVVAVKAINSNYYLAMNKKGKLYGSKEFNNDCKLKERIEENGYNTYASFNWQHNGRQMYVALNGKGAPRRGQKTRRKNTSAHFLPMVVHS
B6: Il11: IL11R agonist (protein, UniProt P47873 22-199, looked up)
Interleukin-11: PGPPAGSPRVSSDPRADLDSAVLLTRSLLADTRQLAAQMRDKFPADGDHSLDSLPTLAMSAGTLGSLQLPGVLTRLRVDLMSYLRHVQWLRRAGGPSLKTLEPELGALQARLERLLRRLQLLMSRLALPQAAPDQPVIPLGPPASAWGSIRAAHAILGGLHLTLDWAVRGLLLLKTRL

Tests used:
Type in all cases: cell-based, human
[1] = system: forward differentiating hES culture; assay: Two stage protocol: Pan-CM 8 days then second stage medium with MG132, DAPT, forskolin, sodium propionate; transcript analysis; details: compared with MG132
Description: As a means to optimize the differentiation of insulin producing cells a two stage protocol was used in which pluripotent cultures were incubated in the presence of Pan-CM for 8 days as a means of generating pancreatic precursors cellular population. The medium these cultures were incubated in were subsequently changed to a medium designed to enhance differentiation of a pancreatic precursor towards a beta-cell terminal fate. All second stage experiments were performed in a medium composed of DMEM/F12 containing 12 mM Glucose supplemented with 1% B27, 1% Pyruvate, 1 uM Alk5 Inh II, 500 ng/ml Noggin and 0.5 uM (1,25 OH2)-Vit D3.
Among the compounds assayed for the ability to increase insulin production in a forward differentiating culture was the proteosomal inhibitor MG132 which we used in the previous example to stabilize Ngn3 protein. We also included the gamma secretase inhibitor DAPT, which was shown in the previous example to greatly increase beta-cell formation in the developing embryonic pancreatic explant study. We also included the short fatty acid salt sodium propionate, which acts as an agonist of short-chain fatty acid receptors. We also included the adenylyl cyclase activator forskolin. We also included the nuclear hormone receptor agonist 1,25 (OH)2)-Vit D3, which binds to, and activates the VDR protein. We also used intermediate concentrations of glucose, shown by others to increase formation of insulin producing cells from pluripotent derivatives. These compounds were used individually or in combination (as outlined in FIG. 37 panel A) to increase insulin-producing endocrine cell formation in a short term Pan-CM treated forward differentiating hES culture system.

hES cultures = assay: Individual defined medium components added throughout stages 2 and 3 of a directed differentiation protocol, qRT-PCR and IHC; details: for Pdx1 relative transcript level over hES levels / FoxA2 relative transcript level over hES levels: additive throughout stage 2 and stage 3; for Pdx1 relative transcript level over hES levels: control ~2500 fold; for FoxA2 relative transcript level over hES levels: control ~75 fold
Excerpt: To assay the individual protein components within the cell conditioned medium defined by the microarray analysis, the individual components were included throughout stages 2 and 3 of a directed differentiation protocol. […] Panels B-G show immunohistochemical stainings for Pdx1 and Hnf1-beta for the control reaction (panel B, D and F) and the reaction performed with the addition of Hb-EGF (panels C, E and G).
Since we have seen that the Pan-CM induced differentiation of the pluripotent culture results in an increased presence of pancreatic progenitors within forward differentiating cultures we next assayed the individual components of the cell conditioned medium as single additives throughout stage 2 and stage 3 of a directed differentiation protocol. Stage 2 and stage 3 cultures were assayed since these are the stages which normally establish pancreatic endoderm within directed differentiation protocols. An outlined schematic of the components used throughout the directed differentiation is provided in FIG. 45 panel A. Three genes were assayed throughout this series of experiments: the endodermal gene FoxA2, the early pancreatic progenitor gene Pdx1 and the endocrine progenitor gene Nkx6.1. […] The most dramatic effect noted within the genes assayed throughout this series of experiments was observed within the Pdx1 transcript levels obtained within cultures that had either Hb-EGF or FGF10 included throughout stage 2 and stage 3.
While this series of experiments have successfully established a beneficial effect for the inclusion of a FGF ligand within throughout stages 2 and 3 of a directed differentiation protocol, it should be noted many directed differentiation protocols already currently include a either FGF10 or FGF7 within either stage 2, stage 3 or both. […] This effect may have been due to the high concentration of Activin A used within these reactions 100 ng/ml. This high concentration was chosen because it is the typical concentration used in generating endoderm during stage 1 of directed differentiation protocols, however the actual concentration present within the Pan-CM was undetermined and may have been quite lower. […] This implies that the benefit due to their presence within the directed differentiation protocol may only be detectable by assaying other pancreatic markers or assaying the directed differentiation cultures at later stages, or as in them being a supportive component in a multi-factorial additive provision, yet unable to operate to induce pancreatic fates when provided alone.

pluripotent cultures = assay: Stage 4 administration of individual defined components in directed differentiation, RT-qPCR; details: component added at stage 4, 4 days
Excerpt: FIG. 46 (A-B)—Stage 4 administration of defined components. Pluripotent cultures were passaged onto matrigel and maintained in the presence of MEF-conditioned medium for three days before being subjected to a directed differentiation protocol. At the end of stage 3 the individual components of the cell conditioned medium were supplemented into the cultures. After 4 days RNA was extracted from the various cultures and subjected to RT-qPCR analysis for key markers.
We next explored if there were any beneficial effects from inclusion of the individual components of the cell conditioned medium in stage 4 cultures. The individual components were assayed in a directed differentiation protocol for their ability to up regulate markers of the pancreatic truck progenitor state. […] It was noted that both Mfap5 and Nbl1 up regulated the expression of HNF6.

Bmp4 = Bmp4 stimulus of pluripotent cells with Nbl1 or Noggin: phospho smad 1/5/8 Western/IHC, ID factor RNA; details: for ID2 and ID4, direct gene targets of Bmp4 signaling / Bmp4 induced phosphorylated smad 1/5/8: 24 hours; for ID2 and ID4, direct gene targets of Bmp4 signaling: RNA analysis; for Bmp4 induced phosphorylated smad 1/5/8: Western blot and IHC
Description: FIG. 42 (A-C)—Nbl1 inhibits BMPs. Pluripotent cells were incubated in the presence of Bmp4 alone or in combination with Nbl1 or Noggin for 24 hours. The following day cultures were assayed for downstream targets of Bmp4 signaling. […] Note the reduced expression of the phosphorylated smads for both Nbl1 and Noggin. […] In addition the down stream activation of AFP was loss in the cultures treated with Nbl1 and Noggin.
Our initial experiment testing the ability of a Pan-CM informed defined medium ability to replicate the direct induction of pancreatic fates relied on the use of Noggin as a BMP inhibitor. This was due to the fact that Nbl1 was not available at the time so a member of the same family of proteins was used. We obtained the NBL1 protein (Sino Biologicals, cat number 10169-H02H) and determined if Nbl1 operates as a Bmp signaling inhibitor. Pluripotent cultures were subjected to a Bmp4 stimulus in the presence and absence of either Noggin or Nbl1. […] This inhibitory effect was also observed by immunohistochemical analysis of the treated cultures and is shown in FIG. 42 panel B. In addition the direct gene targets of Bmp4 signaling, ID2 and ID4, were assayed and shown to be inhibited in the presence of Noggin or Nbl1 (FIG. 42 panel C) as was the downstream target of Afp (panel B).

Row | Molecule | NKX6.1 expression (pluripotent cultures) | PDX1 expression (pluripotent cultures) | Pdx1 relative transcript level over hES levels (hES cultures) | other results
1 | CCC(=O)[O-].[Na+] [sodium propionate] | – | – | – | effects on pancreas-specific transcript levels [1]: minor in comparison
2 | Activin A: Activin receptor agonist | positively effected | significantly up-regulated | – | effect of continued incubation on the cultures (hES cultures; 100 ng/ml throughout stage 2 and 3): detrimental effect on the cultures
3 | Cxcl12: CXCR4 agonist, stromal cell derived factor one | – | down-regulated | slight increase | –
4 | B1 | – | down-regulated | ~8500 fold | FoxA2 relative transcript level over hES levels (hES cultures): ~125 fold
5 | B2 | – | – | – | ID2 and ID4, direct gene targets of Bmp4 signaling (Bmp4): inhibited; Bmp4 induced phosphorylated smad 1/5/8 (Bmp4): failed to produce this BMP specific phosphorylation event
6 | B3 | positively effected | – | – | function on Bmp4 signaling (Bmp4): functions as a Bmp4 inhibitor; ID2 and ID4, direct gene targets of Bmp4 signaling (Bmp4): inhibited; Bmp4 induced phosphorylated smad 1/5/8 (Bmp4): failed to produce this BMP specific phosphorylation event; HNF6 expression (pluripotent cultures): up regulated
7 | B4 | positively effected | significantly up-regulated | – | HNF6 expression (pluripotent cultures): up regulated
8 | B5 | – | – | ~8500 fold | –
9 | B6 | positively effected | significantly up-regulated | slight increase | FoxA2 relative transcript level over hES levels (hES cultures): ~160 fold
